From paper PMC10614612, “Identification of a carbonic anhydrase–Rubisco complex within the alpha-carboxysome” (Proceedings of the National Academy of Sciences of the …, 2023)
Substitutions are numbered along the chain they refer to. Names may count otherwise.

T1: NTD_(1-53)-sfGFP R23A (H. neapolitanus, UniProt O85042 1-53, R23A)
T1 construct: first 53 residues of CsoSCA, H. neapolitanus, with R23A; source: E. coli, purified (His-tag purification); not shown: sfGFP, C-terminal, kept; His tag, C-terminal, kept
T1 sequence (looked up): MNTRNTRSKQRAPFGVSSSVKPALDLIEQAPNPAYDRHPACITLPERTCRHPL

T2: NTD_(1-53)-sfGFP P22A (H. neapolitanus, UniProt O85042 1-53, P22A)
T2 construct: first 53 residues of CsoSCA, H. neapolitanus, with P22A; source: E. coli, purified (His-tag purification); not shown: sfGFP, C-terminal, kept; His tag, C-terminal, kept
T2 sequence (looked up): T1 sequence (looked up) with P22A, A23R

T3: CbbS, Rubisco small subunit (as in Rubisco-strep) (H. neapolitanus, UniProt P45686 1-110)
T3 construct: Rubisco small subunit CbbS, H. neapolitanus; residues M4-N110 modelled; Subunit of m2, written on its own for the contacts in the cryo-EM structure; source: E. coli, coexpressed with GroEL/ES, purified as Rubisco-strep
T3 sequence: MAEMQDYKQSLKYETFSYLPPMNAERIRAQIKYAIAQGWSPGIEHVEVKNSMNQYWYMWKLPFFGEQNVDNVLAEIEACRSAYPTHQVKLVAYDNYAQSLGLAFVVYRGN

B1: CsoSCA-MBP (enzyme, H. neapolitanus, UniProt O85042 1-514, looked up)
chain: MNTRNTRSKQRAPFGVSSSVKPRLDLIEQAPNPAYDRHPACITLPERTCRHPLTDLEANEQLGRCEDSVKNRFDRVIPFLQVVAGIPLGLDYVTRVQELAQSSLGHTLPEELLKDNWISGHNLKGIFGYATAKALTAATEQFSRKIMSEKDDSASAIGFFLDCGFHAVDISPCADGRLKGLLPYILRLPLTAFTYRKAYAGSMFDIEDDLAQWEKNELRRYREGVPNTADQPTRYLKIAVYHFSTSDPTHSGCAAHGSNDRAALEAALTQLMKFREAVENAHCCGASIDILLIGVDTDTDAIRVHIPDSKGFLNPYRYVDNTVTYAQTLHLAPDEARVIIHEAILNANRSDGWAKGNGVASEGMRRFIGQLLINNLSQIDYVVNRHGGRYPPNDIGHAERYISVGDGFDEVQIRNLAYYAHLDTVEENAIDVDVGIKIFTKLNLSRGLPIPIAIHYRYDPNVPGSRERTVVKARRIYNAIKERFSSLDEQNLLQFRLSVQAQDIGSPIEEVASA
notes: CsoSCA, beta-carbonic anhydrase of the alpha-carboxysome, H. neapolitanus; also called CsoSCA-MBP-his; C-terminal MBP tagged CsoSCA; source: E. coli, purified (His-tag purification, size exclusion chromatography); not shown: MBP, C-terminal, kept
B2: Rubisco-strep (H. neapolitanus CbbL8S8) (complex)
chain 1: MAVKKYSAGVKEYRQTYWMPEYTPLDSDILACFKITPQPGVDREEAAAAVAAESSTGTWTTVWTDLLTDMDYYKGRAYRIEDVPGDDAAFYAFIAYPIDLFEEGSVVNVFTSLVGNVFGFKAVRGLRLEDVRFPLAYVKTCGGPPHGIQVERDKMNKYGRPLLGCTIKPKLGLSAKNYGRAVYECLRGGLDFTKDDENINSQPFMRWRDRFLFVQDATETAEAQTGERKGHYLNVTAPTPEEMYKRAEFAKEIGAPIIMHDYITGGFTANTGLAKWCQDNGVLLHIHRAMHAVIDRNPNHGIHFRVLTKILRLSGGDHLHTGTVVGKLEGDRASTLGWIDLLRESFIPEDRSRGIFFDQDWGSMPGVFAVASGGIHVWHMPALVNIFGDDSVLQFGGGTLGHPWGNAAGAAANRVALEACVEARNQGRDIEKEGKEILTAAAQHSPELKIAMETWKEIKFEFDTVDKLDTQNR
chain 2: T3 sequence
notes: Rubisco large subunit CbbL, H. neapolitanus, alpha-carboxysomal Form IA; residues V3-E457 modelled in the cryo-EM maps; Rubisco small subunit CbbS, H. neapolitanus; residues M4-N110 modelled in the cryo-EM maps; Printed both as 'strep-Rubisco' and 'Rubisco-strep'; plasmid in Dataset S4; also called strep-Rubisco; WT; source: E. coli, coexpressed with GroEL/ES, purified (Strep-tag purification); …
B3: CbbL, Rubisco large subunit (as in Rubisco-strep) (natural protein, H. neapolitanus)
chain: B2 chain 1
notes: Rubisco large subunit CbbL, H. neapolitanus; residues V3-E457 modelled; Subunit of m2, written on its own for the contacts in the cryo-EM structure; also called CbbLA; CbbLB; source: E. coli, coexpressed with GroEL/ES, purified as Rubisco-strep
B4: Rubisco D99A (complex, H. neapolitanus)
chain 1: B2 chain 1 with D99A
chain 2: T3 sequence
notes: Rubisco large subunit CbbL, H. neapolitanus, with D99A (the text places D99 on CbbL); Rubisco small subunit CbbS, H. neapolitanus; Plasmid in Dataset S4; source: E. coli, coexpressed with GroEL/ES, purified (Strep-tag purification); copies: 8 + 8
B5: Rubisco Y72A (complex, H. neapolitanus)
chain 1: B2 chain 1 with Y72A
chain 2: T3 sequence
notes: Rubisco large subunit CbbL, H. neapolitanus, with Y72A (the text places Y72 on CbbL); Rubisco small subunit CbbS, H. neapolitanus; Plasmid in Dataset S4; source: E. coli, coexpressed with GroEL/ES, purified (Strep-tag purification); copies: 8 + 8
B6: NTD_(1-53)-sfGFP (domain or fragment, H. neapolitanus, UniProt O85042 1-53, looked up)
chain: T1 sequence (looked up) with A23R
notes: first 53 residues of CsoSCA (unstructured N-terminal peptide), H. neapolitanus; Fused to monomeric superfolder GFP; Linker, if any, is in Dataset S4; also called NTD_(1-53)-sfGFP-His; source: E. coli, purified (His-tag purification); not shown: sfGFP, C-terminal, kept; His tag, C-terminal, kept
B7: NTD_(1-50) peptide (CsoSCA residue 1-50) (peptide, UniProt O85042 1-50, looked up)
peptide: MNTRNTRSKQRAPFGVSSSVKPRLDLIEQAPNPAYDRHPACITLPERTCR
notes: first 50 residues of CsoSCA, H. neapolitanus; also called NTD peptide; N50 peptide
B8: NTD1-53-sfGFP-His, first 53 residues of CsoSCA fused to superfolder GFP (domain or fragment, H. neapolitanus, UniProt O85042 1-53, looked up)
chain: T1 sequence (looked up) with A23R
notes: first 53 residues of CsoSCA, Halothiobacillus neapolitanus; source: E. coli (see Dataset S4), purified (His-tag purification)

Experiments:
[1] = molecular target: T4, biotinylated Rubisco (H. neapolitanus CbbL8S8) (H. neapolitanus, UniProt O85040 1-473; P45686 1-110, biotin (sites and subunit not stated)); experiment: BLI; biotinylated Rubisco immobilised on streptavidin biosensors; 62.5–2.0 nM CsoSCA-MBP as prey; 25 mM Tris pH 7.5, 125 mM NaCl, 0.01% Triton X100; 1:1 binding model; triplicate; settings: both partners purified
T4 construct: Rubisco large subunit CbbL, H. neapolitanus, alpha-carboxysomal Form IA; Rubisco small subunit CbbS, H. neapolitanus; Held on streptavidin sensors; how it was biotinylated is in the SI Appendix methods; source: E. coli, coexpressed with GroEL/ES, purified (Strep-tag purification), biotinylated; copies: 8 + 8

NTD_(1-53)-sfGFP = molecular target: B6; experiment: BLI; 5 μg/mL NTD_(1-53)-sfGFP-His (or point mutant) immobilised on Ni-NTA biosensors; strep-Rubisco (WT 250–3.9 nM, or mutant) as prey; 25 mM Tris pH 7.5, 70 mM NaCl, 0.01% Triton X100; 1:2 (Bivalent Analyte) binding model; settings: both partners purified
NTD_(1-53)-sfGFP R23A = molecular target: T1, NTD_(1-53)-sfGFP R23A; experiment: as above; settings: both partners purified
NTD_(1-53)-sfGFP P22A = molecular target: T2, NTD_(1-53)-sfGFP P22A; experiment: as above; settings: both partners purified
[2] = molecular target: the molecule itself; experiment: cryo-EM structure; 0.5 μM Rubisco-strep with 0.5 mM NTD_(1-50) peptide; 25 mM Tris pH 7.5, 80 mM NaCl, 2% glycerol; two reconstructions (State-1, State-2), D4 symmetry
[3] = molecular target: B2; experiment: SEC; NTD_(1-53)-sfGFP and Rubisco-strep mixed 32:1 (NTD_(1-53)-sfGFP:CbbL8S8); Superose 6 Increase 3.2/300; 20 mM Tris pH 7.5, 150 mM NaCl, 4 °C; A280 and A485; settings: both partners purified
[4] = molecular target: T3, CbbS, Rubisco small subunit (as in …); experiment: cryo-EM structure; 0.5 μM Rubisco-strep with 0.5 mM NTD_(1-50) peptide; 25 mM Tris pH 7.5, 80 mM NaCl, 2% glycerol; two reconstructions (State-1, State-2), D4 symmetry; settings: both partners purified
[5] = molecular target: B2; experiment: as above; settings: both partners purified
[6] = molecular target: T5, Rubisco-strep (CbbL8S8) from Halothiobacillus neapolitanus (H. neapolitanus, UniProt O85040 1-473; P45686 1-110); experiment: SEC; Superose 6 Increase 3.2/300, 20 mM Tris pH 7.5, 150 mM NaCl, 4 °C; NTD1-53-sfGFP:CbbL8S8 mixed 32:1; A280 and A485 monitored; settings: both partners purified
T5 construct: Rubisco large subunit CbbL, Halothiobacillus neapolitanus; Rubisco small subunit CbbS, Halothiobacillus neapolitanus; also called strep-Rubisco; source: E. coli (BL21-A1 or BW25113, see Dataset S4), co-expressed with GroEL/ES, purified (StrepTrap); copies: 8 + 8

KD2 (second set of the 1:2 fit) (NTD_(1-53)-sfGFP) [nM] | KD (first set of the 1:2 fit) (NTD_(1-53)-sfGFP) [nM] | koff2 (second set of the 1:2 fit) (NTD_(1-53)-sfGFP) [s⁻¹] | koff (first set of the 1:2 fit) (NTD_(1-53)-sfGFP) [s⁻¹] | kon2 (second set of the 1:2 fit) (NTD_(1-53)-sfGFP) [M⁻¹ s⁻¹] | kon (first set of the 1:2 fit) (NTD_(1-53)-sfGFP) [M⁻¹ s⁻¹] | Binder | further results
– | – | – | – | – | – | B1 | Kd [1]: 1.2 ± 0.1 nM
80 ± 1 | 33 ± 0.4 | 0.11 | 0.0069 | 1.4e+06 | 210000 | B2 | KD2 (second set of the 1:2 fit) (NTD_(1-53)-sfGFP R23A): 130 ± 2 nM; KD (first set of the 1:2 fit) (NTD_(1-53)-sfGFP R23A): 17 ± 0.2 nM; koff2 (second set of the 1:2 fit) (NTD_(1-53)-sfGFP R23A): 0.061 s⁻¹; koff (first set of the 1:2 fit) (NTD_(1-53)-sfGFP R23A): 0.0033 s⁻¹; kon2 (second set of the 1:2 fit) (NTD_(1-53)-sfGFP R23A): 460000 M⁻¹ s⁻¹; kon (first set of the 1:2 fit) (NTD_(1-53)-sfGFP R23A): 190000 M⁻¹ s⁻¹; KD2 (second set of the 1:2 fit) (NTD_(1-53)-sfGFP P22A): 6.5 ± 0.4 µM; KD (first set of the 1:2 fit) (NTD_(1-53)-sfGFP P22A): 18 µM; koff2 (second set of the 1:2 fit) (NTD_(1-53)-sfGFP P22A): 0.44 s⁻¹; koff (first set of the 1:2 fit) (NTD_(1-53)-sfGFP P22A): 0.044 s⁻¹; kon2 (second set of the 1:2 fit) (NTD_(1-53)-sfGFP P22A): 68000 M⁻¹ s⁻¹; kon (first set of the 1:2 fit) (NTD_(1-53)-sfGFP P22A): 2400 M⁻¹ s⁻¹
– | – | – | – | – | – | B3 | binding result [2]: binds
1100 ± 14 | 400 ± 10 | 0.15 | 0.0059 | 130000 | 15000 | B4 | –
820 ± 11 | 320 ± 6 | 0.15 | 0.0089 | 180000 | 28000 | B5 | –
– | – | – | – | – | – | B6 | binding result [3]: binds
– | – | – | – | – | – | B7 | binding result [4]: binds; stoichiometry N [5]: 8
– | – | – | – | – | – | B8 | binding result [6]: binds
